The values that follow are results of earlier work, collected in publication PMC4526918.

The target in this series is HAESA-LIKE2 (HSL2) (Arabidopsis thaliana) (UniProt C0LGX3).
UniProt C0LGX3, sequence (C0LGX3 29-632): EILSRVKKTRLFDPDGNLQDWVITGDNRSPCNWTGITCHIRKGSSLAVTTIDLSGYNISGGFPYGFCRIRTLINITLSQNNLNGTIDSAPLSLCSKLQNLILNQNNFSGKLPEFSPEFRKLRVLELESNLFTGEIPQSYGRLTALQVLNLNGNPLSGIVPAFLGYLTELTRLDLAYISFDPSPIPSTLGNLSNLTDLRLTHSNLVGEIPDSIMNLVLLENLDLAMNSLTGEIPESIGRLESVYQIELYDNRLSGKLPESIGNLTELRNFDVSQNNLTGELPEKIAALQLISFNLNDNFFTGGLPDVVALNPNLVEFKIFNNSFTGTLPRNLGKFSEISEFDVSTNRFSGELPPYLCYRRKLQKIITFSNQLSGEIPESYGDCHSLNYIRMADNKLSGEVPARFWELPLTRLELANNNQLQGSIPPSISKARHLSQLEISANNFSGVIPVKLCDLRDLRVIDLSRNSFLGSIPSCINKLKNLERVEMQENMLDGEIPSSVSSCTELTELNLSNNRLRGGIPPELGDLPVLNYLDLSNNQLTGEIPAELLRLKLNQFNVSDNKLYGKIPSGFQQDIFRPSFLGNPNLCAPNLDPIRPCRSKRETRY

With “IDA peptide (IDAp) (from UniProt Q8LAD7)”, the Kd was 20 nM.
